Assay results from article PMC3553982 (Nucleic Acids Research, 2012).
Values belong to the molecule of their own block, whether it stands above or below them.

What was measured:
[1] = biological target: 5-FAM labeled Rim1 (FAM-Rim1) (S. cerevisiae) (UniProt P32445); assay: fluorescence polarisation
[2] = biological target: 5-FAM labeled Rim1ΔC18 (FAM-Rim1ΔC18) (S. cerevisiae) (UniProt P32445); assay: fluorescence polarisation
[3] = biological target: Human mitochondrial SSB (HsmtSSB) (human) (UniProt Q04837); assay: pull-down
Human mitochondrial SSB (HsmtSSB) (human), sequence (Q04837 17-148): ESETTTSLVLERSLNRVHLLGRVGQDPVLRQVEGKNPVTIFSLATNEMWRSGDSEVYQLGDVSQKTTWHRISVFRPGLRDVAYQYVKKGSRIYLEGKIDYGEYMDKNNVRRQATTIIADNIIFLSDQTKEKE

Rim1ΔC18 (S. cerevisiae) = Rim1ΔC18 (S. cerevisiae) (UniProt P32445); assay: pull-down
SEC-MALS = biological target: the molecule itself; assay: SEC-MALS
Rim1 = biological target: T1, Rim1 (Saccharomyces cerevisiae, UniProt P32445 18-135); assay: fluorescence anisotropy
T1 sequence: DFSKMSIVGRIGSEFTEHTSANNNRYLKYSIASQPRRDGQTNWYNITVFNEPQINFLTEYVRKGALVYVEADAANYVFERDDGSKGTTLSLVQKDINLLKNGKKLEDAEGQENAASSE

Rim1ΔC18 = biological target: T2, Rim1ΔC18 (Saccharomyces cerevisiae, UniProt P32445 18-117, del118-135); assay: fluorescence anisotropy
T2 sequence: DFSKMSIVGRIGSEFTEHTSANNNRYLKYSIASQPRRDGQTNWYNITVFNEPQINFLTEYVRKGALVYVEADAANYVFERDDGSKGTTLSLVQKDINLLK

Kd [1]: 0.69 µM
Kd [2]: 2.5 µM
relative amount of Pif1 co-precipitated (Pif1 bound to Rim1 taken as 1) [3]: 0.63
relative amount of Pif1 co-precipitated (Pif1 bound to Rim1 taken as 1) (Rim1ΔC18 (S. cerevisiae)): 0.45
Molecule: Pif1 (recombinant, nuclear form) (from UniProt P07271 46-859) (enzyme)

B1: Rim1ΔC18 (domain or fragment, S. cerevisiae, UniProt P32445 18-117, looked up)
chain: DFSKMSIVGRIGSEFTEHTSANNNRYLKYSIASQPRRDGQTNWYNITVFNEPQINFLTEYVRKGALVYVEADAANYVFERDDGSKGTTLSLVQKDINLLK
stoichiometry N (SEC-MALS): 4

B2: 3'F-T70 (ssDNA)
DNA: TTTTTTTTTTTTTTTTTTTTTTTTTTTTTTTTTTTTTTTTTTTTTTTTTTTTTTTTTTTTTTTTTTTTTT
Kd (Rim1): < 0.001 µM
Kd (Rim1ΔC18): < 0.001 µM
